Laboratory results from PMC9324849, “A Light‐Activatable Photocaged Variant of the Ultra‐High Affinity ALFA‐Tag Nanobody” (Chembiochem, 2022).

Assays:
sfGFP-ALFA-tag (3) [1] = assay: MST; 10 nM sfGFP-ALFA-tag (3) with a dilution series of photobody 1, before light activation
[2] = molecular target: ALFA-Pb displayed on E. coli cells (AIDA autodisplay system), photocaged, not irradiated; assay: flow cytometry on cells; E. coli cells displaying the nanobody (AIDA autodisplay system), not irradiated, mixed with a dilution series of fluorescent sfGFP-ALFA-tag (3)
sfGFP-ALFA-tag (3) [3] = molecular target: T1, sfGFP-ALFA-tag (3) (synthetic construct …); assay: flow cytometry on cells; E. coli cells displaying the ALFA-Pb irradiated in 100 uL PBS (OD600=1; 365 nm, 530 mW; 5 cm distance), then different concentrations of sfGFP-ALFA-tag (3) added; conditions: one partner purified
T1 construct: ALFA-tag, laboratory-designed amphiphilic peptide of 13 amino acids; sfGFP is the fluorescent marker read in MST and flow cytometry; also called protein 3; fusion construct sfGFP-ALFA-tag
T1 chain: SRLEEELRRRLTE

sfGFP-ALFA-tag (3) [4] = molecular target: T1, sfGFP-ALFA-tag (3); assay: flow cytometry on cells; E. coli cells displaying the nanobody (AIDA autodisplay system), not irradiated, mixed with a dilution series of fluorescent sfGFP-ALFA-tag (3); conditions: one partner purified

Molecule: ALFA-tag photobody (ALFA-Pb) 1, Tyr42ONBY, photocaged (VHH)
- Kd (sfGFP-ALFA-tag (3) [1]): 7900 nM

Molecule: sfGFP-ALFA-tag (3)
- Kd [2]: 3200 nM

B1: decaged ALFA-Pb displayed on E. coli cells (after irradiation at 365 nm) (VHH)
VHH: EVQLQESGGGLVQPGGSLRLSCTASGVTISALNAMAMGWYRQAPGERRVMVAAVSERGNAMYRESVQGRFTVTRDFTNKMVSLQMDNLKPEDTAVYYCHVLEDRVDSFHDYWGQGTQVTVSS
notes: Made from m2 by UV light
- Kd (sfGFP-ALFA-tag (3) [3]): 0.183 ± 0.006 nM

B2: ALFA-Nb (wild type) displayed on E. coli cells, unirradiated control (VHH)
VHH: EVQLQESGGGLVQPGGSLRLSCTASGVTISALNAMAMGWYRQAPGERRVMVAAVSERGNAMYRESVQGRFTVTRDFTNKMVSLQMDNLKPEDTAVYYCHVLEDRVDSFHDYWGQGTQVTVSS
notes: ALFA-tag nanobody (ALFA-Nb), wild type; also called unirradiated ALFA-Nb control; ALFA-tag nanobody
- Kd (sfGFP-ALFA-tag (3) [4]): 0.346 ± 0.005 nM
